Source: the DeepSol protein solubility set

Test: soluble on expression in E. coli; label from the status in PepcDB or PDB records

| Sequence | soluble on expression in E. coli |
| --- | --- |
| MQVQAPRRTPKIQQVVEFVESLDDNHRLKGKEDGETYLIEPNAISRIYIENRQVLAETTQGDYHLGLRLYQVLEILPAYFIKISQSEIVNLKEIERFNITPNRLVEIHLKTRKLATHHAVTSKQ | not soluble |
| MAKNHYDILRRHIRSEDLLETPEFGSGSRIVEEYWIQEPFTKAIIVENEDEFRNVYYALEPTVSSEEAEVISALYDDLKKILVLQDVSVDLEERAEVLVRAIEKLSKEYAVSFTDNFYSRMLYYLFRDFFGYGLIDPLMEDTNVEDISCDGYNIPIFIYHQKYGNVETNIVLDQEKLDRMVLRLTQRSGKHISIANPIVDATLPDGSRLQATFGTEVTPRGSSFTIRKFTIEPLTPIDLIEKGTVPSGVLAYLWLAIEHKFSAIVVGETASGKTTTLNAIMMFIPPDAKVVSIEDTREIKLYHENWIAEVTRTGMGEGEIDMYDLLRAALRQRPDYIIVGEVRGREAQTLFQAMSTGHASYSTLHAGDINQMVYRLESEPLKVPRSMLQFLDIALVQTMWVRGNTRLRRTKEVNEILGIDPVDKNLLVNQFVKWDPKEDKHIEVSMPKKLEKMADFLGVSVQEVYDEMLSRKRYLELMLKRGIRNYKEVTRYIHAYYRNPELAMTKMEEGL | soluble |
| MSLTERKQRFLRRILTYYTLKRRESKWIIDYWLRNDSKLEQVHFVQNAMFAPKAMIITTYGFDADPFLFKKGEVKTTDPEKAYHDIRLTDEPLYIELNFQGMMMDDEYLSLLEENPFRPEVAVEPKLADAAMNFIAATVNRQEEERLVRLIDEALDARDKHRFQSLSDELRIIRSQLEGHHHHHH | soluble |
| MGHHHHHHSHMKNLINWFEIPVTDMARAIAFYEQVMQISLRRETMDGADLAVFPYAEPGPGGALIKQDDVAPVAQGVVIYLHTADLLASIERVVLAGGKCVLEPMVPGDDIGTIALFIDSEGNRIGLHQPA | soluble |
| MGHHHHHHSHLTTKEDVFDAIVTLKVRGAPAIGITAAFGLALAAKDIETDNVTEFRRRLEDIKQYLNSSRPTAINLSWALERLSHSVENAISVNEAKTNLVHEAIQIQVEDEETCRLIGQNALQLFKKGDRIMTICNAGSIATSRYGTALAPFYLAKQKDLGLHIYACETRPVLQGSRLTAWELMQGGIDVTLITDSMAAHTMKEKQISAVIVGADRIAKNGDTANKIGTYGLAILANAFDIPFFVAAPLSTFDTKVKCGADIPIEERDPEEVRQISGVRTAPSNVPVFNPAFDITPHDLISGIITEKGIMTGNY | not soluble |
| MPIATPEVYAEMLGQAKQNSYAFPAINCTSSETVNAAIKGFADAGSDGIIQFSTGGAEFGSGLGVKDMVTGAVALAEFTHVIAAKYPVNVALHTDHCPKDKLDSYVRPLLAISAQRVSKGGNPLFQSHMWDGSAVPIDENLAIAQELLKAAAAAKIILEIEIGVVGGEEDGVANEINEKLYTSPEDFEKTIEALGAGEHGKYLLAATFGNVHGVYKPGNVKLRPDILAQGQQVAAAKLGLPADAKPFDFVFHGGSGSLKSEIEEALRYGVVKMNVDTDTQYAFTRPIAGHMFTNYDGVLKVDGEVGVKKVYDPRSYLKKAEASMSQRVVQACNDLHCAGKSLTHHHHHH | soluble |
| MSSIKTSPTKKTSESTTKQDTPNDQTNIENFDEEPSMLSDPEDYLEENETLDMNLSKGDQKVWLVKLPKYLMDDWSNPDSMNGQQLGNVKIKKDARGKLQVKLLLDNKNDRIPKEYDIKMLNTQVRNSYVFTEENLKKFKQEVTEVSDMPEQPQLKELNPEKKKFQVRRKFKYFRVQKEGENGQPVKKYIPFVKTIPKKTSLMGKVCHDCTVVPARTGSKHGESLMKHQNMTQGKERPKVTLLNEIPGVIQSNAGPSIKGNAASIFLKSTQGKNKSEGRTIRMPKKDLLDLLFRLFEEYEYWSMKGLKERTRQPESYLKESLESIATLIKRGPYTSKYTLKAEYRRLRDAERAVRLGLDEDDQNKENNEDEDEDEEMEDVV | soluble |
| MGHHHHHHSHMASPSKAVIVPGNGGGDVTTHGWYGWVKKELEKIPGFQCLAKNMPDPITARESIWLPFMETELHCDEKTIIIGHSSGAIAAMRYAETHRVYAIVLVSAYTSDLGDENERASGYFTRPWQWEKIKANCPYIVQFGSTDDPFLPWKEQQEVADRLETKLHKFTDCGHFQNTEFHELITVVKSLLKVPA | not soluble |
| MGSDKIHHHHHHMSSDVRKALDPGTPYSRTLKQYSIDEKLAIISHAKNHGNRAAGREFNVAESSIREWRKNENKLIHNRDAAAARLNAQSSHSSGPARLNNMNNNNNNNHNHSKNNNIQYTQTVFPRRTPDDIVKHIQIAQITQLAMMKMDFTSLARIAPFLQAHQHQQQAQAKPDSISTASSVVGTPSSISSSSSTPPPSTSPVPTSSGSGRRKPRCPMKIVVAESNNPVNIEEIQENIDE | not soluble |
| MSLTLVTELTPPAASAPPFSDHPDHVIAAVTATIVDLPLRRPHFHATGTHATQSLVMVELVTSGGAVGWGEGGTPGGTAFWGGECVETIKLMIDHYLAPAVIGISVFDQERILAAMDRIAANNHFAKAAIDIAVHDAAARLIGISVSQMFGGTARSTVPVLWALAAAAYEADVADAIEQIEAGRHSVFKIKIGKGDAASETRRALETATTIHDAHPDARFVVDLNQAWDESTAMRWLAAFQERDFLFVEQPVPAWNVEGMIRLASRFEIPIMADEGLWDFHDAYELIRRGATDIYAVKIAKGGGLRRAFKAAAVAEAAGVPLYGGMALESSVGTAAGLQLFSALPNLPFGCELIGPRLLAEDLTVQPIAYRDREVVVPSGVGMGVEIDRDRVRSFTRRNKEGHHHHHH | soluble |
| MAHHHHHHMGKKAEFARSRFKEVRQKREERMQRSRTERDRRHGIDKLERKIGKVVVQRPLPNEAQQALLLAQFAQACRLVAPSTDMCILMRHYAKVAEAAEQKSKSTTMVTTSAPSAKSTTRKRKRDEAEEEEEEAPAAGATFLDTVADALLQTQNAPAVIEEAAASAKDGENALDDDDDDDDTVTVLQDILQDDNGRRVVATLLASLNAVHSSKCEAVAKAVLEQFEENEHLPQHHVACRVMSALAQFGSDPTRQGVLNLLRQRSTTIEGVERLLSDRHTAGTIEQLLKSYSRETAAWLCEALSLSTPVTSPSAAEAGGKKKKAAKQRDAAAEETASGERITTEKLMELVNGPVSGQVLLQLLHTDARRELLKRLPIVELLRSKRGTTFLTQLLMSTASVASSKGDEGREAEAVALFSDVLERLGNDLGEMAIDKRANFVVQALIQLLPAMGPQSAKQLERLERGLGGAAGISALVAHGNGVHVVLSLIDAALTLSSESAVEGLAEQLVTRQNVTDLLYHKHGSLVVRRLMPLISRKASKVGRLLQGMVEQDFSNLVYTEAGNLVVTAYLTALGKSGASLLAQKLAGGEELLSMCRSPYASHVVFTLFELVDPITHTLLCNALKAHVLPLSIHVNGRFIVEKMIAASRDVRESVSRQFLSLAQERGTQHVLCALLARMDARGKQACVEKTIMPNLTALATHQCGSIVLQKLMQAEPTVLSAVRQRLSANSLVRSDLAQNFFGKFVVQIAQQPEQEQPQ | soluble |
| MGSDKIHHHHHHMTEGSQQKRVVVVGAGWAGLGATYHLAKQGYDVTLLEAGPYPGGLVAGWQTTGGKSVEAGIHGFWYPYRNIFALINELNIHPFTTWTRSAQYSPAGLEVESPIFQDLPRLPTPLGTFIYTQFQRLPLIDRLSALPLLYAVVDFDNSDAAWRRYDSVTARELFKDFGVSARLYKEAFEPMLLVGLFAPGEQCSAAATLGMLYFFILAHQADFDVVWCRGTVGEKIFRPWVERIEKAGAKVLPKHRVTDLIIDSNNQATGVVCGNEVFDADAVIFAVGITGMKKIVSSSPSLQSRAEFRNLHNLGAIDVLATRLWFDRKIDIPRPSNACFGFDNTTGWTFFDLNALHDEYKNELGTVIEADFYHANQFLNWSDAEIVATVQNYLTTCVPGFAQAKVIDSSVIRLPQAVTHFAPGSYPYMLPAKTSFDNVFMSGDWIVNRHGSWSQEKAYVTGLEAANLVVSHLGEGTPVEILPVEADETHIQVARSLNQTVRKLGKFILPNFWLP | not soluble |
| AIALPADGIVCFPGQTWEKVLSKVKKAVVFMDDRCSESLHWNGGAALLFEAGARNIKQFSSFEAGAQNEPKAVFVVSTVLKGRTADIIKDIISLSHFQYCVVFTTVPHSIHLLANNVNADLEGNPVFEQFEEKLCEWMGDMNYTAEVMHAPVVFAPLTEHLHLLPAFSNLFPLLDVDLESINEKRPEKKRFGSLMDMDVHSLPPGLQIQIKTLALTLNGLFEFISTREESFSVGPMSRLIATELANLPQAKNRRKTAPNKASVVFVDRTLDLTGAVGHHGDNLAEKILSVLPQLPGHVTDVQVDMLELTHLKPTTDTKGILAPGCLAQNQSATAKLLWETMLVAKQKEAVIEVRRQLVEAASKENLPIKMSLGRVTAEQLCSYVQLFRDSWGALESHSGVLQLGLAAAQALRHPALQRWDACLAFERLLLQALGDSDLAGVLKQLLPLIKSSESGTGSDLSMDDLLVLLVYVYSVAKEACSGGSEEEKQVEKVEQELIGALTLRLTRETTLSPLVQEVTGVSCPEELTMECAHSVLESMFGTLRGVARARDHLKNFSSVFTPGDGAHQDQHRYILILMIQDQHQ | soluble |
| MGSDKIHHHHHHMEAAAQFFVESPDVVYGPEAIEAQYEYRTTRVSREGGVLKVHPTSTRFTFRTARQVPRLGVMLVGWGGNNGSTLTAAVLANRLRLSWPTRSGRKEANYYGSLTQAGTVSLGLDAEGQEVFVPFSAVLPMVAPNDLVFDGWDISSLNLAEAMRRAKVLDWGLQEQLWPHMEALRPRPSVYIPEFIAANQSARADNLIPGSRAQQLEQIRRDIRDFRSSAGLDKVIVLWTANTERFCEVIPGLNDTAENLLRTIELGLEVSPSTLFAVASILEGCAFLNGSPQNTLVPGALELAWQHRVFVGGDDFKSGQTKVKSVLVDFLIGSGLKTMSIVSYNHLGNNDGENLSAPLQFRSKEVSKSNVVDDMVQSNPVLYTPGEEPDHCVVIKYVPYVGDSKRALDEYTSELMLGGTNTLVLHNTCEDSLLAAPIMLDLALLTELCQRVSFCTDMDPEPQTFHPVLSLLSFLFKAPLVPPGSPVVNALFRQRSCIENILRACVGLPPQNHMLLEHKMERPGPSLKRVGPVAATYPMLNKKGPVPAATNGCTGDANGHLQ | not soluble |
| MNTQNYTYSTTGYQPSQPSGGQQSYNETRQYSSNATSNYPSQTQQYQQQQHQYQSDHSNAQRLLNSGYNTNQVDYVLGHKDKYNEGPHYQPPIINSSATAANNSSSSTHHYNSSSQAIPLGGPNQGHSSSSYTTETRVTGGGTGAPVSNNYSNQNYSSSAYNSQSSQHQTKSIPVQNYQISFPPLSVSTPAFGTSFFENSQKSFQESSEKFHRDLASPLSRTIPVQSAGHFSEVSKYFNSEEEENYQVSQPAIPLPSADQVYEVSSNYNKSYSSQTTTQHQPQPVAANNNYSTSYHTERSSTTTAQQPQTIALPPPQNNSSHTETHSSTGPIMMHSPGGHSMKSTEFSSSRHHKQETTTTTTTTPQPPVFQTTTYPTTKTTSYNYSSSTIPSQPAKPSFNQESYTTHTERNNSSQGFPQQRLQPSGGYSYENYSSSRKEENRREETSRPVSQLSQYSESRNYKRNYEEKTETTTVPSLAPATNVTYKDLSNAQCVDDVFNKKTEMNESLPVGSVFNTHNNTEGGYRDANGHDVSYKRETQTSADPGRETALLKEEEKRVVETPLEPGVISRHVTTKYYKKKTVTDTTTTTA | not soluble |
| MSLDHIIIRHAHAAVITAPLNTPFRIATGQHDQLENVFFQLKAHDGTCGYGEAAVASHITGETVEQTLANLQKAATQLAGRNGNDPVELIEEFRPLFVGNHAALAAFEMALFDLASRSRGIPFGALFSAAPGCAARPRFQSDITIVIGSLEEAETAARHYAGQGFTAFKIKVGKDHELDLQRVLAVKRIAPDSCLVLDANMGFDATGMRRFLQQLEQHGIRPDLLEQPVPKGDWDGLAAITREFAGSGMLICADESVGSLAAAELAVALKAVNAINIKFMKSGITESVRIAELACRNNIKLMLGAMMESSLAITAAAHFAATLGCFEVIDLDTTFFINGPLSRSPYLDQSGRFDLGAPGPGIGVALKLLEGHHHHHH | soluble |
| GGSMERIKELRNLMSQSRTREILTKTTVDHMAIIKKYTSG | soluble |
